Test results: US20170210787A1

Columns and labels:
[1] = biological target: ptau 187-212 (pY197, pT205 by the sequence printed in Table 11) (human); test: peptide ELISA, 2 ug/mL
[2] = biological target: ptau 187-212 (pS202, pT205 by the sequence printed in Table 22) (human); test: Ala-scan peptide ELISA, 1 ug/mL

Chain of CBTAU-7.1 (antibody) (VH): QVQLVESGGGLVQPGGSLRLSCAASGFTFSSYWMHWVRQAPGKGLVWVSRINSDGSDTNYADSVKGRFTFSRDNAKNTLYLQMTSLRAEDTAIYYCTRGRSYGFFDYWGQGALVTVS
Chain of CBTAU-7.1 (antibody) (VL): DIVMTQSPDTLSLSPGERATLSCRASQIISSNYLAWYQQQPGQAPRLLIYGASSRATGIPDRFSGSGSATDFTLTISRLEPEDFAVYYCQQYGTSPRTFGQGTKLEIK

OD450 [1]: 0.5 to 1 od
OD450 [2]: > 1.5 od
Substance: CBTAU-7.1 (antibody)
